Experimental data published in paper PMC4072508, “Genome-Wide Prediction and Validation of Peptides That Bind Human Prosurvival Bcl-2 Proteins” (PLoS Computational Biology, 2014).

T1: Mcl-1, Q07820
T1 chain: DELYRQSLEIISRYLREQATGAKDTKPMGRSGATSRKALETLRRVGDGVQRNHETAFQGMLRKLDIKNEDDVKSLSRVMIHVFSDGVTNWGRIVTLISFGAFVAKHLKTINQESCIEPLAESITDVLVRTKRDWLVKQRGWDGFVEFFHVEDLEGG

T2: Bcl-w, Q92843
T2 chain: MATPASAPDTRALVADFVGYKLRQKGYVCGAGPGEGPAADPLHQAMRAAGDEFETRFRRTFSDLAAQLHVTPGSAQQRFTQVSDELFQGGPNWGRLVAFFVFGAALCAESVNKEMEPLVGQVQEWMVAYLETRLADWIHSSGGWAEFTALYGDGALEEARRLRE

T3: Bcl-2, P10415
T3 chain: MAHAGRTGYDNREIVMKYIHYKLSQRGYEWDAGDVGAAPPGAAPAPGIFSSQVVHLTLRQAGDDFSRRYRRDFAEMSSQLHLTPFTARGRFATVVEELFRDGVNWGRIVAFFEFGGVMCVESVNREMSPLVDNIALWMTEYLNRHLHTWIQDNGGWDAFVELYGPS

T4: Bfl-1, Q16548
T4 chain: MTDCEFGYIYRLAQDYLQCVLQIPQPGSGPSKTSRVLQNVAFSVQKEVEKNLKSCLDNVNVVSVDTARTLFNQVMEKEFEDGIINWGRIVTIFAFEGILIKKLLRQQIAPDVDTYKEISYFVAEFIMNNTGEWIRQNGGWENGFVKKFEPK


Legend:
[1] = biological target: PXT1 BH3-like peptide (human); experiment: fluorescence polarisation; direct binding: 10 nM FAM-labeled peptide, receptor serially diluted; 25°C; 20 mM NaPO4, 50 mM NaCl, 1 mM EDTA, 0.001% Triton X, pH 7.8; single-site binding model
Mcl-1, Q07820 [2] = biological target: T1, Mcl-1, Q07820; experiment: fluorescence polarisation, direct titration of receptor into 10 nM labelled peptide
Bcl-xL, Q07817 [3] = experiment: as above
Chain of Bcl-xL, Q07817 (Q07817 1-209): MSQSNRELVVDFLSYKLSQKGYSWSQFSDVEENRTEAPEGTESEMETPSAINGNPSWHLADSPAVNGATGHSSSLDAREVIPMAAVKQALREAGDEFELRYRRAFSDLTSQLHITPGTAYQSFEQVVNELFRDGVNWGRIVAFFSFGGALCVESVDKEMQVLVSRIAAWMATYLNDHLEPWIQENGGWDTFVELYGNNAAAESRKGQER

Bcl-w, Q92843 [4] = biological target: T2, Bcl-w, Q92843; experiment: as above
Bcl-2, P10415 [5] = biological target: T3, Bcl-2, P10415; experiment: as above
Bfl-1, Q16548 [6] = biological target: T4, Bfl-1, Q16548; experiment: as above
Bcl-2, P10415 [7] = experiment: peptide SPOT array, c-Myc-tagged receptor at 1 uM or 100 nM, anti-c-Myc-Cy3
Target sequence in this assay (P10415 1-217): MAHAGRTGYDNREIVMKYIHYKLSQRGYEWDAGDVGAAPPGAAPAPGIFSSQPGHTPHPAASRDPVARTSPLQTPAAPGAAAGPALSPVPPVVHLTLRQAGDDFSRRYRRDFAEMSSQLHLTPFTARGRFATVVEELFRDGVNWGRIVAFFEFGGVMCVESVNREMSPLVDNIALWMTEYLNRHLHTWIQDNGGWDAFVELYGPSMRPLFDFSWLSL

Mcl-1, Q07820 [8] = biological target: T1, Mcl-1, Q07820; experiment: as above
Bcl-xL, Q07817 [9] = experiment: as above
Bcl-w, Q92843 [10] = biological target: T2, Bcl-w, Q92843; experiment: as above
Bfl-1, Q16548 [11] = biological target: T4, Bfl-1, Q16548; experiment: as above

Binder	Kd [1]	Kd (Mcl-1, Q07820 [2])	Kd (Bcl-xL, Q07817 [3])	Kd (Bcl-w, Q92843 [4])	Kd (Bcl-2, P10415 [5])	Kd (Bfl-1, Q16548 [6])	SPOT signal as a fraction of Bim BH3's signal on the same receptor and array (Bcl-2, P10415 [7])	SPOT signal as a fraction of Bim BH3's signal on the same receptor and array (Mcl-1, Q07820 [8])	SPOT signal as a fraction of Bim BH3's signal on the same receptor and array (Bcl-xL, Q07817 [9])	SPOT signal as a fraction of Bim BH3's signal on the same receptor and array (Bcl-w, Q92843 [10])	SPOT signal as a fraction of Bim BH3's signal on the same receptor and array (Bfl-1, Q16548 [11])
Bfl-1 (natural protein) MTDCEFGYIYRLAQDYLQCVLQIPQPGSGPSKTSRVLQNVAFSVQKEVEKNLKSCLDNVNVVSVDTARTLFNQVMEKEFEDGIINWGRIVTIFAFEGILIKKLLRQQIAPDVDTYKEISYFVAEFIMNNTGEWIRQNGGWENGFVKKFEPKSGWMTFLEVTGKICEMLSLLKQYC	< 30 nM	–	–	–	–	–	–	–	–	–	–
EVLAGPLAQRLSHIAEDVGRLVKKSR [ARHGAP4]	–	> 2430 nM	3060 nM	749 nM	6090 nM	> 5600 nM	0.1	0.28	0.4	0.94	0.4
Bcl-w (natural protein) MATPASAPDTRALVADFVGYKLRQKGYVCGAGPGEGPAADPLHQAMRAAGDEFETRFRRTFSDLAAQLHVTPGSAQQRFTQVSDELFQGGPNWGRLVAFFVFGAALCAESVNKEMEPLVGQVQEWMVAYLETQLADWIHSSGGWAEFTALYGDGALEEARRLREGNWASVRTVLTGAVALGALVTVGAFFASK	< 30 nM	–	–	–	–	–	–	–	–	–	–

Second part, the binder after the results:

Kd [1]	Kd (Mcl-1, Q07820 [2])	Kd (Bcl-xL, Q07817 [3])	Kd (Bcl-w, Q92843 [4])	Kd (Bcl-2, P10415 [5])	Kd (Bfl-1, Q16548 [6])	SPOT signal as a fraction of Bim BH3's signal on the same receptor and array (Bcl-2, P10415 [7])	SPOT signal as a fraction of Bim BH3's signal on the same receptor and array (Mcl-1, Q07820 [8])	SPOT signal as a fraction of Bim BH3's signal on the same receptor and array (Bcl-xL, Q07817 [9])	SPOT signal as a fraction of Bim BH3's signal on the same receptor and array (Bcl-w, Q92843 [10])	SPOT signal as a fraction of Bim BH3's signal on the same receptor and array (Bfl-1, Q16548 [11])	Binder
–	1460 nM	2050 nM	2490 nM	1410 nM	> 4660 nM	0.19	0.41	0.93	0.92	0.8	FTGNNTAVQELKRVSEQFTATFRRKA [TUBB4Q]
–	592 nM	679 nM	2490 nM	124 nM	1900 nM	0.38	0.44	0.34	0.2	0.49	FERVEQMCIQIKEVGDRVNYIKRSLQ [TRPM7]
–	> 10000 nM	2720 nM	> 4000 nM	562 nM	> 4000 nM	0.01	0.02	0.11	0.02	0.02	TDENKKVGLALKDLAKQYSDRLECCE [NUB1]
–	0.9 nM	8 nM	5 nM	14 nM	1 nM	0.13	0.9	0.26	0.99	0.99	EEIIHKLAMQLRHIGDNIDHRMVRED [PXT1]
